According to the Human Domainome abundance scans (Beltran et al. 2025):
± gives the uncertainty stated by the source.

B1: Double-stranded RNA-specific adenosine deaminase, residues 296 to 358; numbered along this chain, P55265 (parent)
chain: MAEIKEKICDYLFNVSDSSALNLAKNIGLTKARDINAVLIDMERQGDVYRQGTTPPIWHLTDK

Variants of: B1
Assay: abundance fitness (aPCA) (normalised: wild type 0, dead -1); higher = more abundant; growth selection in yeast, the domain comes from the species named
Conditions: Homo sapiens
Work on MAEIKEKICDYLFNVSDSSALNLAKNIGLTKARDINAVLIDMERQGDVYRQGTTPPIWHATDK yielded an abundance fitness of -0.196 ± 0.06.
With MAEIKEKICDYLFNVSDSSALNLAKNIGLTKARDINAVLIDMERQGDVYRQGTTPPIWHDTDK the abundance fitness was -0.356 ± 0.1.
With MAEIKEKICDYLFNVSDSSALNLAKNIGLTKARDINAVLIDMERQGDVYRQGTTPPIWHKTDK the abundance fitness was -0.494 ± 0.09.
Variant MAEIKEKICDYLFNVSDSSALNLAKNIGLTKARDINAVLIDMERQGDVYRQGTTPPIWHLTDH has an abundance fitness of -0.374 ± 0.31.
MAEIKEKICDYLFNVSDSSALNLAKNIGLTKARDINAVLIDMERQGDVYRQGTTPPIWHLTDF gave an abundance fitness of -0.217 ± 0.46.
Variant MAEIKEKICDYLFNVSDSSALNLAKNIGLTKARDINAVLIDMERQGDVYRQGTTPPIWHLTDG has an abundance fitness of -0.442 ± 0.15.
For MAEIKEKICDYLFNVSDSSALNLAKNIGLTKARDINAVLIDMERQGDVYRQGTTPPIWHLTDN, the abundance fitness was -0.302 ± 0.14.
Work on MAEIKEKICDYLFNVSDSSALNLAKNIGLTKARDINAVLIDMERQGDVYRQGTTPPIWHLTDM yielded an abundance fitness of -0.619 ± 0.28.
MAEIKEKICDYLFNVSDSSALNLAKNIGLTKARDINAVLIDMERQGDVYRQGTTPPIWHLTDD showed an abundance fitness of -0.162 ± 0.23.
In the case of MAEIKEKICDYLFNVSDSSALNLAKNIGLTKARDINAVLIDMERQGDVYRQGTTPPIWHLTDC, the abundance fitness is reported as -0.258 ± 0.13.
In the case of MAEIKEKICDYLFNVSDSSALNLAKNIGLTKARDINAVLIDMERQGDVYRQGTTPPIWHLTDE, the abundance fitness is reported as -0.234 ± 0.11.
MAEIKEKICDYLFNVSDSSALNLAKNIGLTKARDINAVLIDMERQGDVYRQGTTPPIWHLWDK showed an abundance fitness of -0.808 ± 0.099.
For MAEIKEKICDYLFNVSDSSALNLAKNIGLTKARDINAVLIDMERQGDVYRQGTTPPIWHLEDK, the abundance fitness was -0.483 ± 0.1.
With MAEIKEKICDYLFNVSDSSALNLAKNIGLTKARDINAVLIDMERQGDVYRQGTTPPIWHLRDK the abundance fitness was -0.282 ± 0.052.
MAEIKEKICDYLFNVSDSSALNLAKNIGLTKARDINAVLIDMERQGDVYRQGTTPPIWHLPDK showed an abundance fitness of -0.411 ± 0.073.
With MAEIKEKICDYLFNVSDSSALNLAKNIGLTKARDINAVLIDMERQGDVYRQGTTPPIWHLQDK the abundance fitness was -0.52 ± 0.076.
MAEIKEKICDYLFNVSDSSALNLAKNIGLTKARDINAVLIDMERQGDVYRQGTTPPIWHLNDK showed an abundance fitness of -0.124 ± 0.075.
For MAEIKEKICDYLFNVSDSSALNLAKNIGLTKARDINAVLIDMERQGDVYRQGTTPPIWHLHDK, the abundance fitness was -0.344 ± 0.26.
MAEIKEKICDYLFNVSDSSALNLAKNIGLTKARDINAVLIDMERQGDVYRQGTTPPIWHLFDK showed an abundance fitness of -0.737 ± 0.14.
With MAEIKEKICDYLFNVSDSSALNLAKNIGLTKARDINAVLIDMERQGDVYRQGTTPPIWHLMDK the abundance fitness was -0.182 ± 0.062.
For MAEIKEKICDYLFNVSDSSALNLAKNIGLTKARDINAVLIDMERQGDVYRQGTTPPIWHLVDK, the abundance fitness was -0.193 ± 0.051.
Work on MAEIKEKICDYLFNVSDSSALNLAKNIGLTKARDINAVLIDMERQGDVYRQGTTPPIWHLIDK yielded an abundance fitness of -0.818 ± 0.22.
Variant MAEIKEKICDYLFNVSDSSALNLAKNIGLTKARDINAVLIDMERQGDVYRQGTTPPIWHLSDK has an abundance fitness of -0.052 ± 0.044.
In the case of MAEIKEKICDYLFNVSDSSALNLAKNIGLTKARDINAVLIDMERQGDVYRQGTTPPIWHLDDK, the abundance fitness is reported as -0.32 ± 0.12.
In the case of MAEIKEKICDYLFNVSDSSALNLAKNIGLTKARDINAVLIDMERQGDVYRQGTTPPIWVLTDK, the abundance fitness is reported as -0.282 ± 0.048.
Variant MAEIKEKICDYLFNVSDSSALNLAKNIGLTKARDINAVLIDMERQGDVYRQGTTPPIWTLTDK has an abundance fitness of -0.052 ± 0.056.
Work on MAEIKEKICDYLFNVSDSSALNLAKNIGLTKARDINAVLIDMERQGDVYRQGTTPPIWGLTDK yielded an abundance fitness of 0.215 ± 0.044.
With MAEIKEKICDYLFNVSDSSALNLAKNIGLTKARDINAVLIDMERQGDVYRQGTTPPIWRLTDK the abundance fitness was 0.281 ± 0.036.
Work on MAEIKEKICDYLFNVSDSSALNLAKNIGLTKARDINAVLIDMERQGDVYRQGTTPPIWYLTDK yielded an abundance fitness of -0.466 ± 0.078.
With MAEIKEKICDYLFNVSDSSALNLAKNIGLTKARDINAVLIDMERQGDVYRQGTTPPIWDLTDK the abundance fitness was -0.375 ± 0.081.
MAEIKEKICDYLFNVSDSSALNLAKNIGLTKARDINAVLIDMERQGDVYRQGTTPPIWKLTDK gave an abundance fitness of 0.294 ± 0.065.
Variant MAEIKEKICDYLFNVSDSSALNLAKNIGLTKARDINAVLIDMERQGDVYRQGTTPPIWMLTDK has an abundance fitness of -0.259 ± 0.073.
With MAEIKEKICDYLFNVSDSSALNLAKNIGLTKARDINAVLIDMERQGDVYRQGTTPPIWCLTDK the abundance fitness was 0.095 ± 0.073.
With MAEIKEKICDYLFNVSDSSALNLAKNIGLTKARDINAVLIDMERQGDVYRQGTTPPIWWLTDK the abundance fitness was -0.972 ± 0.1.
MAEIKEKICDYLFNVSDSSALNLAKNIGLTKARDINAVLIDMERQGDVYRQGTTPPIWILTDK showed an abundance fitness of -0.525 ± 0.09.
With MAEIKEKICDYLFNVSDSSALNLAKNIGLTKARDINAVLIDMERQGDVYRQGTTPPIWPLTDK the abundance fitness was -0.524 ± 0.062.
In the case of MAEIKEKICDYLFNVSDSSALNLAKNIGLTKARDINAVLIDMERQGDVYRQGTTPPIWQLTDK, the abundance fitness is reported as -0.175 ± 0.059.
Variant MAEIKEKICDYLFNVSDSSALNLAKNIGLTKARDINAVLIDMERQGDVYRQGTTPPIWLLTDK has an abundance fitness of -0.613 ± 0.063.
In the case of MAEIKEKICDYLFNVSDSSALNLAKNIGLTKARDINAVLIDMERQGDVYRQGTTPPIWSLTDK, the abundance fitness is reported as 0.263 ± 0.044.
In the case of MAEIKEKICDYLFNVSDSSALNLAKNIGLTKARDINAVLIDMERQGDVYRQGTTPPIWALTDK, the abundance fitness is reported as 0.288 ± 0.048.
For MAEIKEKICDYLFNVSDSSALNLAKNIGLTKARDINAVLIDMERQGDVYRQGTTPPIWELTDK, the abundance fitness was -0.301 ± 0.092.
Work on MAEIKEKICDYLFNVSDSSALNLAKNIGLTKARDINAVLIDMERQGDVYRQGTTPPIWNLTDK yielded an abundance fitness of -0.224 ± 0.058.
Variant MAEIKEKICDYLFNVSDSSALNLAKNIGLTKARDINAVLIDMERQGDVYRQGTTPPIWFLTDK has an abundance fitness of -0.329 ± 0.063.
